Here are results for two molecules from paper PMC10570040.

Data set [1] concerns the target T1, EnfR wild-type (TON_1525) (Thermococcus onnurineus NA1, UniProt B6YTS4 1-146).
T1 sequence: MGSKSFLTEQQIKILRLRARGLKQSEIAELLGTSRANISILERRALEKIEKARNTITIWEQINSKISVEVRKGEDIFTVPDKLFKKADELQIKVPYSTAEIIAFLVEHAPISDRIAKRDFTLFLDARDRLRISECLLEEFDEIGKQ
Description: ITC; 25 C; N = 0.94; EMSA: 10 mM Tris pH 7.4, 200 mM KCl, 2 mM DTT, 0.2 mM EDTA, 37 C 20 min; ITC: 10 mM Tris-HCl pH 7.4, 200 mM KCl, 1 mM TCEP, 0.2 mM EDTA, 25 C; footprint: 20 mM. The note with it: protein: recombinant; tags: C-terminal His6, non-cleavable; chain copies: 2; blunt.

The target of another data set is T2, EnfR T55I (Thermococcus onnurineus NA1, UniProt B6YTS4 1-146, T55I).
T2 sequence: T1 sequence with T55I
Description: ITC; 25 C; N = 0.80; EMSA: 10 mM Tris pH 7.4, 200 mM KCl, 2 mM DTT, 0.2 mM EDTA, 37 C 20 min; ITC: 10 mM Tris-HCl pH 7.4, 200 mM KCl, 1 mM TCEP, 0.2 mM EDTA, 25 C; footprint: 20 mM. Particulars: protein: recombinant; tags: C-terminal His6, non-cleavable; chain copies: 2; blunt. For orientation: ITC needs no label: the signal is the heat of the interaction.

The target in another data set is T3, EnfR R44A (Thermococcus onnurineus NA1, UniProt B6YTS4 1-146, R44A).
T3 sequence: T1 sequence with R44A
Description: EMSA; seemed to lose binding; EMSA: 10 mM Tris pH 7.4, 200 mM KCl, 2 mM DTT, 0.2 mM EDTA, 37 C 20 min; ITC: 10 mM Tris-HCl pH 7.4, 200 mM KCl, 1 mM TCEP, 0.2 mM EDTA, 25 C; footprint: 20 mM. The note with it: protein: recombinant; tags: C-terminal His6, non-cleavable; chain copies: 2; label: 5'-Cy5; blunt. A general note: Mobility shift assays separate free from complexed probe on a gel.

Substitutions are numbered along the chain they refer to.

B1: 36-bp target, unlabelled (ITC) (dsDNA)
DNA 1: CCATCTTAAAATCTTTTTGTTTACATTATACGAGGT
DNA 2: ACCTCGTATAATGTAAACAAAAAGATTTTAAGATGG
A word on the Kd: it is the equilibrium constant for the complex coming apart. With B1, the results for the Kd (in data set [1]; with EnfR T55I) were 61.8 ± 20.5 nM and 948 ± 130 nM, respectively.

B2: 36-bp target, Cy5 (dsDNA)
DNA 1: B1 DNA 1
DNA 2: B1 DNA 2
As for B2, the binding result in the data set with EnfR R44A was “no binding”.
